Measured values: paper PMC3375223, “Caspase Inhibitors of the P35 Family Are More Active When Purified from Yeast than Bacteria” (PLoS ONE, 2012)
Values joined by “and” are separate entries in the source; they are usually repeats but may differ in a detail not shown here. Identical values can stand only once.

B1: MaviP35-FLAG purified from Escherichia coli (natural protein)
chain: CVIFPVEIDVSQTVIKDCQVNKQTRELVYINKIMNIELTKPVLMMFNISGPIKSVTRKNNNLRDEIKSEIDKQFDQLERDHSTQFDGGHCIKYFKDEHYSISCQSGNVLKSKFEKILKSHGYTDEKSIEAYKKYCLPKLVDEQNNYYVAVCVLKPGFEKGSNQVLSFEYNPIGNKVIVPFAHEINDTGLYEYDAAAYVDNVKFDGEQQFEKFVQSLTLPSAYDDEEVLYYNETSENKRMMYKALEFKTKSCWGKFEWDYWKIFCNGFIYDEKLKVLYVKLHNVTSRVNNNIILNID
modifications: N-acetylated amino terminus on 24% of the protein
notes: MaviP35, the P35 orthologue of Maruca vitrata MNPV; full length protein lacking the initiating methionine (by mass spectrometry); expressed from pET23a-MaviP35-FLAG; Same coding region as m2 (excised from pGALL-(HIS3)-MaviP35-FLAG); the host differs; also called bacterially purified MaviP35; bacterially-produced MaviP35; source: E. coli BL21-(DE3)-pLysS, purified (Anti-FLAG M2-agarose, FLAG …)
B2: MaviP35-FLAG purified from Saccharomyces cerevisiae (natural protein)
chain: CVIFPVEIDVSQTVIKDCQVNKQTRELVYINKIMNIELTKPVLMMFNISGPIKSVTRKNNNLRDEIKSEIDKQFDQLERDHSTQFDGGHCIKYFKDEHYSISCQSGNVLKSKFEKILKSHGYTDEKSIEAYKKYCLPKLVDEQNNYYVAVCVLKPGFEKGSNQVLSFEYNPIGNKVIVPFAHEINDTGLYEYDAAAYVDNVKFDGEQQFEKFVQSLTLPSAYDDEEVLYYNETSENKRMMYKALEFKTKSCWGKFEWDYWKIFCNGFIYDEKLKVLYVKLHNVTSRVNNNIILNID
modifications: N-acetylated amino terminus on 12% of the protein
notes: MaviP35, the P35 orthologue of Maruca vitrata MNPV; full length protein lacking the initiating methionine (by mass spectrometry); expressed from pGALL-(HIS3)-MaviP35-FLAG; also called yeast-purified MaviP35; yeast-isolated MaviP35; source: gel filtration for some experiments; not shown: FLAG, C-terminal, kept
B3: AcP35-FLAG purified from Saccharomyces cerevisiae (natural protein)
chain: CVIFPVEIDVSQTIIRDCQVDKQTRELVYINKIMNTQLTKPVLMMFNISGPIRSVTRKNNNLRDRIKSKVDEQFDQLERDYSDQMDGFHDSIKYFKDEHYSVSCQNGSVLKSKFAKILKSHDYTDKKSIEAYEKYCLPKLVDERNDYYVAVCVLKPGFENGSNQVLSFEYNPIGNKVIVPFAHEINDTGLYEYDVVAYVDSVQFDGEQFEEFVQSLILPSSFKNSEKVLYYNEASKNKSMIYKALEFTTESSWGKSEKYNWKIFCNGFIYDKKSKVLYVKLHNVTSALNKNVILNTIK
modifications: N-acetylated amino terminus on 13% of the protein

How the values were obtained:
[1] = target: the molecule itself; assay: SEC; Superdex S200 on an ÄKTA purifier, 0.6 ml/min, 20 mM Tris pH 7.4, 50 mM NaCl; sizes by elution against BioRad gel filtration standard
[2] = target: the molecule itself; assay: cross-linking; purified FLAG-tagged MaviP35 incubated in 5 µM BMH for 30 min at room temperature, boiled in loading dye with 5% β-mercaptoethanol, SDS-PAGE and anti-FLAG immunoblot; oligomer sizes by migration against markers
[3] = target: the molecule itself; assay: AUC; sedimentation velocity of gel filtration fractions (yeast 111–215 kDa, bacterial 89–138 kDa), 20°C, PBS, 40,000 rpm, 230 nm; 0.28 and 0.56 µM bacterial fractions, 1.95, 2.23 and 1.39 µM yeast fractions; c(s) and c(M) fits in SEDFIT
[4] = target: caspase 3 (human) (UniProt P42574); assay: inhibition of caspase activity on a fluorogenic peptide, inhibition constants by a competitive model; graded concentrations of P35 protein, 30 nM caspase 3, 100 µM Ac-DEVD-AFC; constants of the yeast-purified proteins taken from ref. 22
Chain of caspase 3 (human) (P42574 whole entry): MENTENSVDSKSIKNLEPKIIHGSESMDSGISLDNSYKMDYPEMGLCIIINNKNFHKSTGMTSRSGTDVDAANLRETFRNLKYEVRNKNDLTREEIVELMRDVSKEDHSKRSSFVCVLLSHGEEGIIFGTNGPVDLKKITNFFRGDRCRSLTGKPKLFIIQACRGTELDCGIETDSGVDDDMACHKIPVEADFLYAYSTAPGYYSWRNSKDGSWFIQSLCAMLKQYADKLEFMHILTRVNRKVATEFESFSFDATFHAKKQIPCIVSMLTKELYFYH

| Binder | stoichiometry N [1] | stoichiometry N [2] | stoichiometry N [3] | fold more efficient in caspase 3 inhibition (inhibition constants, Figure 1B) than bacterially-purified AcP35 [4] [fold] |
| --- | --- | --- | --- | --- |
| B1 | 3 | 10 | – | – |
| B2 | 2 and 5 | – | 4 and 6 and 8 | – |
| B3 | – | – | – | 6 |
